{
  "source": "patent US20160016995A1",
  "key": {"[1]": {"tested_on": "GFP-pdt#4 (Example 1) [GFP: P42212]"}, "[2]": {"tested_on": "GFP-pdt#2 (Example 1) [GFP: P42212]"}, "[3]": {"tested_on": "GFP-pdt (GFP with C-terminal wild-type M. florum ssrA tag) [GFP: P42212]"}, "[4]": {"tested_on": "GFP-pdt#5A (Example 1) [GFP: P42212]"}, "[5]": {"tested_on": "GFP-pdt#3 (Example 1) [GFP: P42212]"}, "[6]": {"tested_on": "untagged GFP (GFPmut3b) [GFP: P42212]"}, "[7]": {"tested_on": "GFP-pdt#5 (Example 1) [GFP: P42212]"}, "[8]": {"tested_on": "GFP-pdt#5B (Example 1) [GFP: P42212]"}, "[9]": {"tested_on": "GFP-pdt#6 (Example 1) [GFP: P42212]"}, "[10]": {"tested_on": "GFP-pdt#5H (Example 1) [GFP: P42212]"}},
  "data": [
    {"substance": "Mesoplasma florum Lon protease (mf-Lon)", "values": [
      {"measurement": "Fold Degradation (0 vs 50 ng/ml aTc)", "setting": "GFP-pdt#S1 [GFP: P42212]", "result": 39.4, "unit": "fold"},
      {"measurement": "Fold Degradation (0 vs 50 ng/ml aTc)", "setting": "GFP-pdt#10 [GFP: P42212]", "result": 41.5, "unit": "fold"},
      {"measurement": "Fold Degradation (0 vs 50 ng/ml aTc)", "setting": "[1]", "result": 51, "unit": "fold"},
      {"measurement": "Fold Degradation (0 vs 50 ng/ml aTc)", "setting": "GFP-pdt#9 [GFP: P42212]", "result": 17, "unit": "fold"},
      {"measurement": "Fold Degradation (0 vs 50 ng/ml aTc)", "setting": "[2]", "result": 51.8, "unit": "fold"},
      {"measurement": "Fold Degradation (0 vs 50 ng/ml aTc)", "setting": "[3]", "result": 20.7, "unit": "fold"},
      {"measurement": "GFP level after mf-Lon expression (Example 2)", "setting": "[3]", "result": "reduced to 3% of its initial levels"},
      {"measurement": "Fold Degradation (0 vs 50 ng/ml aTc)", "setting": "[4]", "result": 5.4, "unit": "fold"},
      {"measurement": "Fold Degradation (0 vs 50 ng/ml aTc)", "setting": "GFP-pdt#5D [GFP: P42212]", "result": 12, "unit": "fold"},
      {"measurement": "Fold Degradation (0 vs 50 ng/ml aTc)", "setting": "[5]", "result": 61.8, "unit": "fold"},
      {"measurement": "Fold Degradation (0 vs 50 ng/ml aTc)", "setting": "GFP-pdt#S2 [GFP: P42212]", "result": 44.9, "unit": "fold"},
      {"measurement": "Fold Degradation (0 vs 50 ng/ml aTc)", "setting": "[6]", "result": 1.2, "unit": "fold"},
      {"measurement": "Fold Degradation (0 vs 50 ng/ml aTc)", "setting": "[7]", "result": 48.7, "unit": "fold"},
      {"measurement": "Fold Degradation (0 vs 50 ng/ml aTc)", "setting": "GFP-pdt#5F [GFP: P42212]", "result": 4, "unit": "fold"},
      {"measurement": "Fold Degradation (0 vs 50 ng/ml aTc)", "setting": "[8]", "result": 2.6, "unit": "fold"},
      {"measurement": "Fold Degradation (0 vs 50 ng/ml aTc)", "setting": "GFP-pdt#S3 [GFP: P42212]", "result": 38.7, "unit": "fold"},
      {"measurement": "Fold Degradation (0 vs 50 ng/ml aTc)", "setting": "GFP-pdt#5G [GFP: P42212]", "result": 4.2, "unit": "fold"},
      {"measurement": "Fold Degradation (0 vs 50 ng/ml aTc)", "setting": "GFP-pdt#11 [GFP: P42212]", "result": 17.7, "unit": "fold"},
      {"measurement": "Fold Degradation (0 vs 50 ng/ml aTc)", "setting": "GFP-pdt#7 [GFP: P42212]", "result": 31.7, "unit": "fold"},
      {"measurement": "Fold Degradation (0 vs 50 ng/ml aTc)", "setting": "GFP-pdt#5E [GFP: P42212]", "result": 7.2, "unit": "fold"},
      {"measurement": "Fold Degradation (0 vs 50 ng/ml aTc)", "setting": "[9]", "result": 55.4, "unit": "fold"},
      {"measurement": "Fold Degradation (0 vs 50 ng/ml aTc)", "setting": "GFP-pdt#5C [GFP: P42212]", "result": 1.6, "unit": "fold"},
      {"measurement": "Fold Degradation (0 vs 50 ng/ml aTc)", "setting": "GFP-pdt#12 [GFP: P42212]", "result": 31.6, "unit": "fold"},
      {"measurement": "Fold Degradation (0 vs 50 ng/ml aTc)", "setting": "GFP-pdt#1 [GFP: P42212]", "result": 24.6, "unit": "fold"},
      {"measurement": "Fold Degradation (0 vs 50 ng/ml aTc)", "setting": "GFP-pdt#8 [GFP: P42212]", "result": 48.4, "unit": "fold"},
      {"measurement": "Fold Degradation (0 vs 50 ng/ml aTc)", "setting": "[10]", "result": 3.6, "unit": "fold"},
      {"measurement": "Fold Degradation (0 vs 50 ng/ml aTc)", "setting": "GFP-pdt#13 [GFP: P42212]", "result": 18.6, "unit": "fold"}
    ]},
    {"substance": "mf-Lon fused to the E. coli ssrA tag variant ec-AAV", "values": [
      {"measurement": "GFP-pdt#3 (Example 2 name) degradation across ATc levels", "setting": "[7]", "result": "resulting in reduced GFP-pdt#3 degradation throughout the range of ATc levels tested"}
    ]}
  ]
}
